Source: article PMC4895024

Columns and labels:
[1] = target: integrin αvβ3 exogenously expressed on CHO and COS-7 cells, P06756;P05106; assay: cell attachment assay (cells on protein-coated plate); details: read off a plot
[2] = target: integrin αIIbβ3 exogenously expressed on CHO and COS-7 cells, P08514;P05106; assay: as above; details: read off a plot
[3] = target: integrin αvβ3 on HUVEC cells, P06756;P05106; assay: as above
[4] = target: ProAgio (D1-CD2 variant 3) (UniProt P06729); assay: as above; details: CHO cells expressing αvβ3 wild type or β3-KKQ; parent: est. 190; read off a plot; scale: cells attached/field
[5] = target: ProAgio (D1-CD2 variant 3) (not stated (human and rat D1-CD2 are named)) (UniProt P06729); assay: cell attachment assay; culture plates coated with ProAgio; cells cultured 35 min, washed three times, attached cells counted per view field; some runs with 5 μM Cilengitide or 40 μg/ml antibody LM609
Sequence of ProAgio (D1-CD2 variant 3) (not stated (human and rat D1-CD2 are named)) (P06729 25-206, change not shown): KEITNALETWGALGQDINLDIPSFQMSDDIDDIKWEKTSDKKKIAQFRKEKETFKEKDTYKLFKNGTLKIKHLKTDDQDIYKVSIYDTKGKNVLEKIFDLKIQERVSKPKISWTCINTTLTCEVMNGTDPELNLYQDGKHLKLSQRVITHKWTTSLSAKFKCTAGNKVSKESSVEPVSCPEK

## D1-CD2 D99N; I102V; Q103I; E104I; E83T; T9V; W10Q; G11M; A12K
[1]; CHO cells expressing αvβ3 (CHOαVβ3), parent: est. 100
  response (cells attached/field): 350
[1]; CHO cells expressing αvβ3
  response (cells attached/field): 280
[1]; COS-7 cells expressing αvβ3 (COS7αVβ3), parent: est. 90
  response (cells attached/field): 310
[1]; COS-7 cells expressing αvβ3
  response (cells attached/field): 350
[2]; CHO cells expressing αIIbβ3
  response (cells attached/field): 50
[2]; COS-7 cells expressing αIIbβ3
  response (cells attached/field): 50
[3]; 40 μg ml−1 antibody LM609 (bar is labelled 'Cilengitide' in the image), read off a plot
  response (cells attached/field): 280
[3]; BSA as control, read off a plot
  response (cells attached/field): 310
[3]; IgG as control, read off a plot
  response (cells attached/field): 340
[3]; in the presence of 5 μM of Cilengitide, read off a plot
  response (cells attached/field): 230
[3]; parent: est. 45, read off a plot
  response (cells attached/field): 290

## integrin αvβ3 exogenously expressed on CHO and COS-7 cells (from UniProt P06756;P05106) β3-KKQ
[4]
  response: 44

## integrin αvβ5 expressed on COS-7 cells (from UniProt P06756 31-1048; P18084 24-799) (receptor)
[5]
  fold less attachment than αvβ3-expressing cells: > 3 fold
